These results are taken from publication PMC3418399.

Experiment [1] addresses Candida albicans ATP-binding cassette transporter CaCdr1p (Candida albicans) (UniProt Q5ANA3).
For experiment [2] the target is unchanged. The source holds these as a separate data set.

Sequence of Candida albicans ATP-binding cassette transporter CaCdr1p (Candida albicans) (Q5ANA3 whole entry): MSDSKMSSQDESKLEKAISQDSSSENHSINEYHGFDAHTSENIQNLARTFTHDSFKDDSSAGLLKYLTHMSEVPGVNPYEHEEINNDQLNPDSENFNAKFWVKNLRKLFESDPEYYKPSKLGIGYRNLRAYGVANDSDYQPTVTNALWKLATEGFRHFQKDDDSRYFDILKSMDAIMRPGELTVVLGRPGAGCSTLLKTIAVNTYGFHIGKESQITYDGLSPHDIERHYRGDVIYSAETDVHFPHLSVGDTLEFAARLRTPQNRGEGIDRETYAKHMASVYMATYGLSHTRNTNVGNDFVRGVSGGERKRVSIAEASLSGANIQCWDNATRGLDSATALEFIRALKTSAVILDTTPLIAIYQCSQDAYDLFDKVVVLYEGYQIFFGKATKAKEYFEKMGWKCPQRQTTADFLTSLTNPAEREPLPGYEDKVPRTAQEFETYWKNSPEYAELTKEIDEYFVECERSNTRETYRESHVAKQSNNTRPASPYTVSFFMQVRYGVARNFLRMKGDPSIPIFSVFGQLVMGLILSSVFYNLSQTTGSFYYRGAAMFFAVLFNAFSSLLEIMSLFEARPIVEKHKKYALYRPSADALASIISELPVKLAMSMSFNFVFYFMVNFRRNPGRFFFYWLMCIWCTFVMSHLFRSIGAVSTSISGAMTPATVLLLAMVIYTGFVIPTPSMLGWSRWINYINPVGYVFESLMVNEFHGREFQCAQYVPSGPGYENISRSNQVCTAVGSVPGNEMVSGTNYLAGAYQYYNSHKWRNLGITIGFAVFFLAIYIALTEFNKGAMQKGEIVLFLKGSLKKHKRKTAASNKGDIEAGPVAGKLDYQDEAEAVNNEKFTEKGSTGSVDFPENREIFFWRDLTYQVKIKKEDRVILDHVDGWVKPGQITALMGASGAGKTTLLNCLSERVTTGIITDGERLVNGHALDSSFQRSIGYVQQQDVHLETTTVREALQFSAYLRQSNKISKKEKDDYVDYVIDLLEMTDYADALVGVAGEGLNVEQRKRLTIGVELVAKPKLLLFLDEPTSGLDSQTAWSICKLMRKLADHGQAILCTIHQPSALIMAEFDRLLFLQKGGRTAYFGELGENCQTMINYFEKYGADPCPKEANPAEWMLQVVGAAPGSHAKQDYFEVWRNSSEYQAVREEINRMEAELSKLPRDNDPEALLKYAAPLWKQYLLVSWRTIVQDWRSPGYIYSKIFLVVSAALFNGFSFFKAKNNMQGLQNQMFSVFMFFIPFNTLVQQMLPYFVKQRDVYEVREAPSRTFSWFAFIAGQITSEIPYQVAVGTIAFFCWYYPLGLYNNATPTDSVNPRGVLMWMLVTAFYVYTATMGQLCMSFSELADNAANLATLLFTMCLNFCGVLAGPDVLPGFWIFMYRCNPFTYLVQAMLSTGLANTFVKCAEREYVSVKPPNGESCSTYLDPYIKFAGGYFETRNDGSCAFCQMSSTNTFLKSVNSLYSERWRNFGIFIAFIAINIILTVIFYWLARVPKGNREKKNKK

Turning to “RC1, naked D-octapeptide D-NH2-FFKWQRRR-CONH2”, the IC50 of inhibition of the ATPase activity of CaCdr1p in experiment [1] was > 200000 nM.
“RC21v3, D-NH2-FFKWQR(Mtr)RR-CONH2 (peptide)”: the IC50 of inhibition of the CaCdr1p ATPase activity, plasma membrane preparations in experiment [2] worked out at 1100 nM.
